Assay: soluble on expression in E. coli; label from the status in PepcDB or PDB records

Row | Sequence | soluble on expression in E. coli
1 | SDKFLVRPDLRDLQGGGEEPAPTGGASGDLKSPDWRHLRAEGLSCDYTVLFGKAEADKIFRELEQEVEYFTGALAKVQVFGKWHSVPRKQATYGDAGLTYTFSGLTLTPKPWVPVLERVRDRVCEVTGQTFNFVLVNRYKDGCDHIGEHRDDERELAPGSPIASVSFGACRDFIFRHKDSRGKRPRRTVEVVRLQLAHGSLLMMNPPTNTHWYHSLPIRKRVLAPRVNLTFRKILPTKK | soluble
2 | SDNGDWGHRLTHPVTLNVGGHLYTTSISTLQRYPDSMLGAMFRGDFPTTRDAQGNYFIDRDGTLFRYILNFLRTSELTLPVDFTELDLLRKEADFYQIEPLIQCLNDPKPLYPLDTFEQVVELSSTRKLSKYSNPVAVIITQLTITTKVHSLLEGISNNFTKWNKHMMDTRDCQVSFTFGPCDYHQEVSLRVHLMDYITKQGFTIRNTRVHHMSERANENTVEHHWTFCRLAYKVED | soluble
3 | SDWKLEGSTQKVESPVLQGQEGILEETGEDGLPEGFQLLQIDAEGECQEGEILATGSTAWCSKNVQRKQRHWEKIVAAKKSKRKQEKERRKANRAENPGICPQHSKRFLRALTKDKLLEAKHSGPRLCIDLSMTHYMSKKELSRLAGQIRRLYGSNKKADRPFWICLTGFTTDSPLYEECVRMNDGFSSYLLDITEEDCFSLFPLETLVYLTPDSEHALEDVDLNKVYILGGLVDESIQKKVTFQKAREYSVKTARLPIQEYMVRNQNGKNYHSEILAINQVFDILSTYLETHNWPEALKKGVSSGKGYILRNSVE | soluble
4 | SEKELRSTILFNAYKKEVFTTNTGYKSLQKRLRSNWKIQSLKDEITSEKLIGVKLWITAGPREKFTAAEFEVLKKYLDSGGDILVMLGEGGESRFDTNINFLLEEYGIMVNNDAVVRNVYYKYFHPKEALGSDGVLNREISRAAGKAVPGVIDEENSGNNAQALTFVYPFGATLSVMKPAVAVLSTGSVCFPLNRPILAFYHSKNQGFGKLAVLGSCHMFSDQYLDKEENSKIMDVVFQWLTTGDIHLNQIDAEDPEISDYTMVPDTATLSEQLRVCLQEGDENPRDFTTLFDLSIYQLDTTCLPKVIKAHEELNVKHEPLQLVQPQFEMPLPALQPAVFPPSFRELPPPPLELFDLDETFSSEKARLAQITNKCTDEDLEFYVMKCGDILGVTSKLPKDQQDAKHILEHIFFQVVEFKKLNQEAH | soluble
5 | SFRFMRDVEPEDPMFLMDPFAIHRQHMSRMLSGGFGYSPFLSITDGNMPGTRPASRRMQQAGAVSPFGMLGMSGGFMDMFGMMNDMIGNMEHMTAGGNCQTFSSSTVISYSNTGDGAPKVYQETSEMRSAPGGIRETRRTVRDSDSGLEQMSIGHHIRDRAHILQRSRNHRTGDQEERQDYINLDESEAAAFDDEWRRETSRFRQQRPLEFRRLESSGAGGRRAEGPPRLAIQGPEDSPSRQSRRYDW | soluble
6 | SFTMAQQSGGGLTRGSFPEGFVFGTASAAYQYEGAVKEDGRGQTIWDTFAHTFGKITDFSNADVAVDQYHRFEEDIQLMADMGMDAYRFSIAWSRIYPNGVGQVNQAGIDHYNKLIDALLAKGIQPYVTLYHWDLPQALEDKYKGWLDRQIVDDFAAYAETCFREFGDRVKHWITLNEPHTVAIQGYDAGLQAPGRCSVLLHLYCKAGNSGTEPYVVAHHFILAHAAAASIYRTKYKATQNGQLGIAFDVMWFEPMSNTTIDIEAAKRAQEFQLGWFADPFFFGDYPATMRARVGERLPRFTADEAAVVKGALDFVGINHYTTYYTRHNNTNIIGTLLNNTLADTGTVSLPFKNGKPIGDRANSIWLYIVPRGMRSLMNYVKERYNSPPVYITENGMDDSNNPFISIKDALKDSKRIKYHNDYLTNLAASIKEDGCDVRGYFAWSLLDNWEWAAGYSSRFGLYFVDYKDNLKRYPKNSVQWFKALLKT | soluble
7 | SGCIQSITCKARIRRENIVVYDVCATIDQCPTRIEETSPIVLRYKTPYFKASARVVMPPIPRHETWVVGWIQACNQMEFFNTYSDLGMSSWELPDLREGRVKAISDSDGVSYPWYGNTTETVTLVGPTNKISRFSVSMNDNFYPSVTWAVPVSDSNVPLLTRIKRDQSFTTWLVAMNTTTKEKIILQTIKWRMRVDIEVDPLQLLGQRARLVGRTQQEQPRILSRMEPIPPNALVKPNANDAQVLMWRPKRGPPLVVIPPK | soluble
